Target: T1, recombinant human C1r2s2 tetramer (human, UniProt P09871 16-688; P00736 18-705)
T1 construct: Heterotetramer of two C1r and two C1s chains, co-expressed in FreeStyle293-F cells; also called human C1r2s2s
T1 chain 1: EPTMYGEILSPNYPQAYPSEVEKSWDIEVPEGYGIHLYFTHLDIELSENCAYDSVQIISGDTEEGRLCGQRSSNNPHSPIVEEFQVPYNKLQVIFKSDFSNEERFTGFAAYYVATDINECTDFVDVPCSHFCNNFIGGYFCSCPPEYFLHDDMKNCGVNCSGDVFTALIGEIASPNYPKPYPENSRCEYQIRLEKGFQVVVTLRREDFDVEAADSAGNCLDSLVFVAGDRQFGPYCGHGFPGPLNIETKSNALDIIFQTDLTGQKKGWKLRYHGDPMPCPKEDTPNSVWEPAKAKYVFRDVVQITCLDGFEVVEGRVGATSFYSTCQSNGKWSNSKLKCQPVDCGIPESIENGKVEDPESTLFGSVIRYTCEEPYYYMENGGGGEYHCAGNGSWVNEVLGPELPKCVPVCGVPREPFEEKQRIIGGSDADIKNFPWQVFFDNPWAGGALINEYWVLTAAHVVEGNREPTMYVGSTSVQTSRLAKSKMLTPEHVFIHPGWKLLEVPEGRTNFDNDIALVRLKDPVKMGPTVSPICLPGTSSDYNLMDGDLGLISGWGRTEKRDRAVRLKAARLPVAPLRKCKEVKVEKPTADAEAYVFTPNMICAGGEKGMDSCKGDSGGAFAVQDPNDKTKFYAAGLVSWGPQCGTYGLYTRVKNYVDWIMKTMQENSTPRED
T1 chain 2: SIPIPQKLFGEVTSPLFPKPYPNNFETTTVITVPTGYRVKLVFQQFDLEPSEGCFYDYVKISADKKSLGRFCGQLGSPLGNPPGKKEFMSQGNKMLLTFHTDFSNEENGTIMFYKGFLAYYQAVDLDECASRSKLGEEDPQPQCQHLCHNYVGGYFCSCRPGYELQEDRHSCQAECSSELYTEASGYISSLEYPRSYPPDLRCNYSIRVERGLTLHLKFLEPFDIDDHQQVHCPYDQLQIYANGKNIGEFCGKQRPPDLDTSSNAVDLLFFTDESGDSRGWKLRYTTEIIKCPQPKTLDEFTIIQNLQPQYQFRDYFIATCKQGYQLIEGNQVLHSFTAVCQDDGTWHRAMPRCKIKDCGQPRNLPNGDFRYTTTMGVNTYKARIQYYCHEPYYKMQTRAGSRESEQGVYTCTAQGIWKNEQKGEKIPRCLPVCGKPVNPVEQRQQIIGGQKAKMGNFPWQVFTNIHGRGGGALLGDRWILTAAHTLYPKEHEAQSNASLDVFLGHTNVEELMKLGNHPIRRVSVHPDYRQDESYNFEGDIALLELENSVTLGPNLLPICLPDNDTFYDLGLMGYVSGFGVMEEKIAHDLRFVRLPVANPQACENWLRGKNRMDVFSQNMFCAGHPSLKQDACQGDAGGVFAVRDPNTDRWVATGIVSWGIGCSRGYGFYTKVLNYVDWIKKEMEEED
Assay: SPR (Biacore), antibody captured on ProA/G, antigen as analyte, 37 C, pH5.8, 1.2 mM CaCl2; pH 5.8
Description: The kinetic parameters of anti-C1s antibodies against recombinant human C1s (as described in PCT/JP2018/042054), human C1r2s2, and cyno C1r2s2 His/Flag (also referred as cyno C1r2s2 in the Table and Figures) were assessed at pH7.4 and pH5.8, at 37 degrees C. using BIACORE (registered trademark) T200 instrument (GE Healthcare) or BIACORE 4000 (GE Healthcare). ProAG (Pierce) was immobilized onto a CM4 sensorchip using amine coupling kit (GE Healthcare) according to the recommended settings by GE Healthcare. Antibodies and analytes were diluted into the respective running buffers, ACES pH7.4 and pH5.8 (20 mM ACES, 150 mM NaCl, 1.2 mM CaCl₂, 1 mg/ml BSA, 1 mg/ml CMD, 0.05% Tween 20, 0.005 w/v % NaN₃). Each antibody was captured onto the sensor surface by ProA/G. Antibody capture levels were typically 100-200 resonance units (RU). Then, recombinant C1s was injected at concentrations of 25 and 50 nM followed by dissociation at pH7.4 and pH5.8. The surface was regenerated using 10 mM Glycine-HCl, pH1.5. Kinetic parameters at neutral pH conditions and acidic conditions were determined by fitting the sensorgrams with 1:1 binding model using BIACORE (registered trademark) T200 Evaluation software, version 2.0 (GE Healthcare) or BIACORE 4000 Evaluation software. The dissociation rate at pH5.8 (after dissociation at pH7.4, indicated as pH5.8* in TABLE 2) was determined by processing and fitting data using Scrubber 2.0 (BioLogic Software) curve fitting software. The association rate (ka), dissociation rate (kd), binding affinity (KD) at pH7.4 and pH5.8 condition, and dissociation rate (kd) at pH5.8* condition of the antibodies are listed in TABLE 2. Some kinetic parameters of COS0098pHv1 in acidic condition were not correctly calculated because of its weak binding response.
Also, to observe the cross-reactivity of anti-C1s antibodies against human C1r2s2 and cyno C1r2s2 (cyno C1r2s2 His/Flag), BIACORE (registered trademark) kinetics analysis was performed.

Kd: 1.2 nM
koff: 0.00103 s⁻¹
kon: 858000 M⁻¹ s⁻¹
B1: COS0098bb (antibody, V domains shown)
VH: QSVEESGGRLVTPGTPLTLTCTVSGFSLTKYTVSWVRQAPGKGLEWIGIINTGGSAYYATWAKGRFTFSKTSTTVDLQITSPTTEDTATYFCARGNGDTDYTNLWGPGTLVTVSS
VL: QVLTQTPSSVSEPVGGTVTINCQASENIYSALAWYQQKPGQPPKLLIYGASNLESGVPSRFKGSGSGTQFTLTISDLECADAATYYCQQYYFTSSTFGGGTKVEIK
notes: Anti-C1s rabbit antibody, parent of COS0098pHv1; the antibody was captured by ProA/G; also called anti-C1s antibody COS0098bb

Reference: patent US20230002481A1 (Chugai, published 2023)
